In patent US20220235142A1 (SHANGHAI GENBASE BIOTECHNOLOGY, published 2022) one finds binding result and EC50 data, which are given here for 1 molecule.

The EC50 is the concentration needed to bring the measured effect to its halfway point. A low value points to a more potent agent.

In test [1] the target is T1, CEACAM7 protein overexpressed on CHO cells (UniProt Q14002 36-242, limits assumed).
T1 construct: whole, on cells; also called CHO-CEACAM7
T1 sequence (looked up): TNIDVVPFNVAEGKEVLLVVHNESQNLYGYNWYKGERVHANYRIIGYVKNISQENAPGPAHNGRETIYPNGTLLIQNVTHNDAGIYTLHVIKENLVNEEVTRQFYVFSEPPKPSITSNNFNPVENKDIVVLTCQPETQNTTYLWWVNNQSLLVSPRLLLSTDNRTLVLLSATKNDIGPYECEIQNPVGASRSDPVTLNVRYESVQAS
The test can be described thus: flow cytometry on CHO-CEACAM7 cells. The procedure:
(§1) Flow cytometry (FACS) was used to detect the binding of antibody to LOVO tumor cells that naturally expressed human CEACAM5 protein or cells that overexpressed different CEACAM proteins. In short, cells were first collected, washed with PBS, counted, and diluted to obtain 2*10⁶/ml cell suspension; 10 μl of an antibody working solution was added to 100 μl of the cell suspension, and incubated at 4° C. for 30 min in the dark; after washing twice with PBS, a corresponding fluorescent-labeled secondary antibody Goat-anti-Human IgG (H+L) (Invitrogen) was added, incubated at 4° C. for 30 min in the dark, after washing twice with PBS, it was suspended in 400 μl of FACS buffer, and the binding situations of the antibody to the cells were detected by FACS.
(§2) The binding situations of the supernatants of the chimeric antibody UM05-6L and the control antibody UM05-8 (anti-CEACAM5 antibody, prepared by the hybridoma method in our laboratory) to different cells at a concentration of 3 μg/mL were detected, in which SW620-CEACAM1 was a cell overexpressing CEACAM1 protein, SW620-CEACAM3 was a cell overexpressing CEACAM3 protein, CHO-CEACAM6 was a cell overexpressing CEACAM6 protein, CHO-CEACAM7 was a cell overexpressing CEACAM7 protein, and CHO-CEACAM8 was a cell overexpressing CEACAM8 protein. […]

Test [2] deals with T2, CEACAM3 protein overexpressed on SW620 cells (UniProt P40198 35-252, limits assumed).
T2 construct: whole, on cells; also called SW620-CEACAM3
T2 sequence (looked up): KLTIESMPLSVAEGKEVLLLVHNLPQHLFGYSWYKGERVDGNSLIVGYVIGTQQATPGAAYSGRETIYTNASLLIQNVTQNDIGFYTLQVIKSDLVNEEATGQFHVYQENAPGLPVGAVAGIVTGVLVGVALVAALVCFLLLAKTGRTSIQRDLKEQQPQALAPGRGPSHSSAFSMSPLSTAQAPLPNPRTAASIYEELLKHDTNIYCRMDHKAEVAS
In words: flow cytometry on SW620-CEACAM3 cells. The method, then: as §1, §2

Test [3] concerns the target T3, human CEACAM5 protein naturally expressed on LOVO tumor cells (human, UniProt P06731 35-685).
T3 construct: whole, on cells; Cell-surface CEACAM5 on tumor cell lines; also called LOVO cells; CEACEM5
T3 sequence (looked up): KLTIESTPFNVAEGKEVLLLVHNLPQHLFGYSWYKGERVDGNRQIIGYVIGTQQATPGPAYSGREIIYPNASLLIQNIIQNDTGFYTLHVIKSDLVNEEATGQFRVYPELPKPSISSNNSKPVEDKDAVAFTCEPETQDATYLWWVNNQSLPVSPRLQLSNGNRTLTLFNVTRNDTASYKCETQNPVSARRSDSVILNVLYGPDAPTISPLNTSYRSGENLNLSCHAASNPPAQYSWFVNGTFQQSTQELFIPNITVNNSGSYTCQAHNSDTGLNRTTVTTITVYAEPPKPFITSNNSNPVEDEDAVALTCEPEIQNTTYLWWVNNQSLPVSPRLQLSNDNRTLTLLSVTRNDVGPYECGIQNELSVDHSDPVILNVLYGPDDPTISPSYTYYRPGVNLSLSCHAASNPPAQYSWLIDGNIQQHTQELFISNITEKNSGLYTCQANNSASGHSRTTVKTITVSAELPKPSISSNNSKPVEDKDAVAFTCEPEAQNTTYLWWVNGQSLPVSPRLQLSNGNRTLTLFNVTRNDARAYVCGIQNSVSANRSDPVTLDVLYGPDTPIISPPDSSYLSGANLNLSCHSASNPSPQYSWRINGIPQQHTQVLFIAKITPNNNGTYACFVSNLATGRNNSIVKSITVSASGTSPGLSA
The test can be described thus: flow cytometry on LOVO tumor cells that naturally express human CEACAM5. The procedure:
as §1
Furthermore, we used FACS to detect the EC50 of the chimeric antibody UM05-6L binding to LOVO tumor cells that naturally expressed human CEACAM5. […] Based on the above results, the chimeric antibody UM05-6L had excellent binding affinity, specificity and selectivity to CEACAM5.

Test [4] has as its target T4, CEACAM6 protein overexpressed on CHO cells (UniProt P40199 35-320, limits assumed).
T4 construct: whole, on cells; also called CHO-CEACAM6
T4 sequence (looked up): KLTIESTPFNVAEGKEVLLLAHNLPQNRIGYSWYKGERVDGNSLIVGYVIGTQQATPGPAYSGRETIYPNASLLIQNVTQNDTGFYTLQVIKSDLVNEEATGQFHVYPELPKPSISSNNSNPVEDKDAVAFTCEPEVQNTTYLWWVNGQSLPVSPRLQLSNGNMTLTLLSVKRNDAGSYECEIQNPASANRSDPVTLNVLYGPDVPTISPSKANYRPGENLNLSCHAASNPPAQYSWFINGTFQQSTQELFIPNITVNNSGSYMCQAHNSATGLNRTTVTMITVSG
The test can be described thus: flow cytometry on CHO-CEACAM6 cells. The procedure:
as §1, §2
In general terms: A flow cytometer gives signals particle by particle.

Test [5] concerns the target T5, CEACAM1 protein overexpressed on SW620 cells (UniProt P13688 35-526, limits assumed).
T5 construct: whole, on cells; also called SW620-CEACAM1
T5 sequence (looked up): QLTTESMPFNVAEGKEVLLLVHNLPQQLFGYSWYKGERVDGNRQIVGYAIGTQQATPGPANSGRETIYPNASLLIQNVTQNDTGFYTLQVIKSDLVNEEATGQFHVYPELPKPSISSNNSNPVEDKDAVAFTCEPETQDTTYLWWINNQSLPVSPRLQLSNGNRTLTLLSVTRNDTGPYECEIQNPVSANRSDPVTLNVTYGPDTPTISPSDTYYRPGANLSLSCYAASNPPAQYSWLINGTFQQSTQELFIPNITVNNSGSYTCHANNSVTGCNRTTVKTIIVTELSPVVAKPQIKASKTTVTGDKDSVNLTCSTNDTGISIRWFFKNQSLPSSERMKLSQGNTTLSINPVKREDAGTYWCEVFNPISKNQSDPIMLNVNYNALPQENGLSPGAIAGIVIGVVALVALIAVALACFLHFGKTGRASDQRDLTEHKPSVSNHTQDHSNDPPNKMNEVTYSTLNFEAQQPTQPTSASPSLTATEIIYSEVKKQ
The test can be described thus: flow cytometry on SW620-CEACAM1 cells. The method, then: as §1, §2

The target of the next test is T6, human CEACAM5 protein (human, UniProt P06731 35-685, limits assumed).
T6 construct: Protein used as ELISA coating; the immunogen was CEACAM5 protein (L2C01001) purified from tumor patients; also called CD66e; carcinoembryonic antigen cell adhesion molecule 5
T6 sequence (looked up): T3 sequence (looked up)
In words: ELISA, plate coated with human CEACAM5 protein at 1 µg/mL, goat anti-human IgG HRP. The procedure:
On the next day, it was first washed with 300 μL of PBST (Tween20: 0.5‰) for 3 times, then blocked with 100 μL/well of 5% BSA/PBS for 1 hour, and shaken at room temperature. Washing was performed 3 times with 300 μL of PBST. A series of dilution solutions of antibody samples were prepared with PBS, and added at 100 μL/well to the 96-well plate and shaken at room temperature for 1 hour. Washing was performed 3 times with 300 μL of PBST. A secondary antibody goat anti-human IgG HRP solution was prepared, added at 100 μL/well to the 96-well plate, and shaken at room temperature for 30 minutes. Washing was performed 4 times with 300 μL of PBST. 100 μL/well TMB was added to perform color development for 20 min. 100 μL/well of 0.6N H₂SO₄ was added to stop the color development, and OD450 nm was detected.

B1: human-mouse chimeric antibody UM05-6L (antibody, human IgG1, kappa, V domains shown)
VH: EVQLQQSGPELVKPGASVKISCKASGYTFTDYYLNWVKQSPGKSLEWIGNINPINDFTTYNQKFKAKATLTVDKSSTTSYMALRSLTSEDSAVYYCTRYDGYFAYWGQGTTLTVSS
VL: DIQMNQSPSSLSASLGDTITITCHASQNINVWLSWYQQKPGNIPKLLIYKASNLHTGVPSRFSGSGSGTGFTLTISSLQPEDIATYYCQQGQSYPWTFGGGTKLEIKR
notes: expressed in HEK293 cells, purified on Protein A
With B1, the binding result in test [1], in test [2], in test [4] and in test [5] was “no binding (tested: 3 µg/mL)” in each case. Further, the EC50 in test [3] was 0.276 µg/mL; in the test with human CEACAM5 protein, 0.0475 µg/mL.
